Source: patent publication US6596504B2, “Treatment of prophylaxis of diseases caused by pilus-forming bacteria” (Washington University, priority 1993, dated 2003)
Entries after “also recorded” stand apart in the source; their conditions may differ.

What was measured:
PapD [1] = biological target: T1, PapD (Escherichia coli, UniProt P15319); assay: Soluble inhibition ELISA: PapD binding to G1′-19′WT-coated wells; parameters: species or system E. coli; details: 25-fold molar excess of peptide, 100 pmol/well PapD, compared to water
T1 construct: (A) NAME/KEY: mat_; made in house; Lindberg et al. 1989
T1 sequence (P15319 22-239): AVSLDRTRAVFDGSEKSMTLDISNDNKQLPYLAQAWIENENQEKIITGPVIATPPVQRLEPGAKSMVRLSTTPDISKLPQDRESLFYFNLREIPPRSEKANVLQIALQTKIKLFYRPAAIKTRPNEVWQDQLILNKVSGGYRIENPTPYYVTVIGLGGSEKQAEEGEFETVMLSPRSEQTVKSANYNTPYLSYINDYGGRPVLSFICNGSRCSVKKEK
Experimental: Microtiter wells were coated overnight at 4° C. with 50 μl of 2,5 pmol/50 μl of the G1′-19′WT peptide. The wells were washed with PBS and blocked with 3% bovine serum albumin (BSA). A 25-fold molar excess of each test peptide was pre-incubated with 100 pmoles PapD for 30 min. and the PapD-peptide solution was then added to the coated wells and incubated at 25° C. for 45 min in the presence of 3% BSA/PBS. The subsequent primary antibody, secondary antibody and developing steps are described above. The ability of the peptides to inhibit binding of PapD to the G1′-19′WT peptide was calculated by dividing the amount of PapD binding in the presence of peptide with the amount of PapD binding in the presence of water. 0% inhibition includes values where binding was greater than that of PapD pre-incubated with H2O.

PapD [2] = biological target: T1, PapD; assay: ELISA: inhibition by peptides of PapD binding to MBP-G1′-140′ fusion protein; parameters: species or system E. coli; details: PapD preincubated with peptide at 1:25 ratio; preliminary results
Experimental: Stock solutions of MBP-G1′-140′ proteins in PBS were diluted to 0.1 μM with PBS. The wells of microtiter plates were coated with 50 μl of the protein solutions overnight at 4° C. The wells were washed with PBS, and blocked with 200 μl of 3bovine serum albumin (BSA) in PBS for 2 hours at 25° C. The plates were washed vigorously three times with PBS and incubated with 50 μl of 1-5 μM PapD proteins in […]-PBS for 45 minutes at 25° C. The PapD was preincubated with each of the peptides at a 1:25 ratio for 30 min before being added to the wells. After three washings with PBS, the wells were incubated with a 1:500 dilution of rabbit anti-PapD antiserum in BSA-PBS for 45 minutes at 25° C. After three washings with PBS, the wells were incubated with a 1:1000 dilution of goat antiserum to rabbit IgG coupled to alkaline phosphatase in 3BSA-PBS for 45 minutes at 25° C. After three washings with PBS and three washings with developing buffer (10 mM diethanolamine, 0.5 mM MgCl2), 50 μl filtered 1 mg/ml p-nitrophenyl phosphate in developing buffer was added, the reaction was incubated for 1 hour or longer if necessary in the dark at 25° C., and the absorbance at 405 nm was read.

PapD [3] = biological target: T1, PapD; assay: ELISA: PapD binding to peptides coated on microtiter wells; parameters: species or system E. coli; details: for binding of PapD to immobilized peptide: peptide coated on microtiter wells, ELISA with anti-PapD antiserum; for reduction of binding of PapD to the immobilized peptide: compared with G1′-19′WT peptide
Experimental: FIG. 1: PapD binds to pilus subunit-related peptides coated in ELISA microtiter plates and in solution. A and B: The peptides from Table 1 were coated on microtiter wells and tested for their ability to bind to PapD in an ELISA assay described in example 2. Water insoluble peptides were dissolved in 2.5% acetic acid (AA) which had no effect on the binding of G1′-19′WT to PapD in this assay. Each group represents the average of duplicate wells.
5 mg/ml stock solutions of peptides in water or 50% acetic acid were diluted to a concentration of 2.5 pmol/50 μl in PBS. 50 μl of the peptide solution was coated overnight onto microtiter wells (Nunc-Immuno Plate Maxisorp) at 4° C. The solutions in the plates were discarded, and the wells were blocked with 200 μl 3% bovine serum albumin (BSA, Sigma) in PBS (120 mM NaCl/2.7 mM KCl/10 mM phosphate buffer salts, pH 7.4) for 2 hours at 25° C. The plates were washed vigorously 3 times with PBS and incubated with 50 μl of the indicated amount of purified PapD (Lindberg et al, 1989). After 3 washes with PBS, the wells were incubated with a 1:500 dilution of anti-PapD rabbit antiserum (Lindberg et al, 1989) in 3% BSA/PBS for 45 min. at 25° C. After 3 washes with PBS, the wells were incubated with a 1:1000 dilution of goat anti-rabbit IgG coupled to alkaline phosphatase (Sigma) in 3% BSA/PBS for 45 min. at 25° C. Following 3 washes with PBS and 3 washes with developing buffer (10 mM diethanolamine pH 9.5, 0,5 MM MgCl2), 50 μl filtered p-nitrophenyl phosphate substrate (Sigma) in developing buffer (10 mg/ml) was added. The absorbance at 405 nm was read after 60 min of incubation in the dark at 25° C.

[4] = Water solubility of peptides; assay type: physicochemical
PapD [5] = biological target: T1, PapD; assay: Protection of PapD against trypsin cleavage by peptides; assay type: biochemical, E. coli; details: preincubation with 20-fold molar excess of peptide
Experimental: A Lower: The rate of trypsin cleavage of PapD decreased upon preincubation with the G1′-19′WT, G1′-16′WT or K1′-19′WT peptides, but the G2′-21′amide peptide had no effect. 50 μg of purified PapD was preincubated for 15 min at 25° C. with a 20-fold molar excess of G1′-19′WT, G1′-16′WT, K1′-19′WT or G2′-21′amide peptides (any trypsin cleavage sites in these peptides occur at their amino termini where they were predicted not to interfere with PapD), or an equivalent volume of water. Each sample was then incubated at 37° C. with 3.2 μg of trypsin. Aliquots were removed after 0, 5, 10, 20, 30 and 40 min and boiled in SDS-PAGE sample buffer to stop the digestion. The samples were applied to 15% SDS-PAGE gels and the amount of full-length PapD remaining was determined by densitometry of Coomassie blue stained bands corresponding to full-length PapD which are shown.
400 μg of PapD was partially digested by incubation with either 4,5μg trypsin or 0.45 μg chymotrypsin on PBS for 20 min. at 37° C. The PapD digests were applied to a C-18 HPLC column (Beckman) and 2 major fragments were eluted with a 0-100% acetonitrile gradient in 0.01% trifluoroacetic acid. The PapD fragments were identified by their molecular weight on SDS-PAGE and amino-terminal sequencing. The N-terminal amino acid sequences of the approximately 14 kDa tryptic and chymotryptic fragments were identified as residues 100-108 and 104-109 of PapD, respectively, corresponding to cleavage after Lys-99 (for trypsin) and Leu-103 (for chymotrypsin). The N-terminal sequences of the 11 and 12 kDa bands in the digests were identical to the N-terminal sequence of PapD.

PapD-PapG complex = biological target: T2, PapD-PapG complex (Escherichia coli, UniProt P15319); assay: Reconstitution assay: restoration of PapD-PapG complex from reduced, denatured PapD-PapG; assay type: binding, E. coli; details: PapD preincubated with peptide
T2 construct: (A) NAME/KEY: mat_; made in house
T2 sequence (P15319 22-239): T1 sequence (P15319 22-239)
Experimental: B: PapD incubated with the G1′-19′WT, G1′-16′WT, K1′-19′WT, and G2′-21′amide was added to reduced, denatured PapD-PapG and the amount of PapD-PapG complex restored in each sample was quantitated as described in example 2. The % inhibition represents the amount of the PapD-PapG complex restored with peptide-treated PapD compared to the amount of PapD-PapG complex restored with untreated PapD. The graph represent the average of 4 experiments. PapD and PapD-PapG complex were prepared as described in F. Lindberg et al, J. Bacteriol. 171, 6052 (1989) and S. J. Hultgren et al., Proc. Natl. Acad. Sci. USA 86, 4357 (1989).
FIG. 7: Ability of PapD Arg-8, Lys-112 and Thr-7 mutants to bind PapG and restore the PapD-PapG complex in vitro. 0.4 μg of PapD-PapG complex was reduced and denatured as described in FIG. 2B. The denatured PapD-PapG complex was then diluted with 0-630 ng purified wild type (WT) or mutant PapD. The amount of PapD-PapG restored in the samples was determined as in FIG. 2B and was graphed as a percentage of the greatest amount of PapD-PapG restored. The values graphed represent the average of 3 experiments. Wild type and mutant PapD and the PapD-PapG complex were purified as described in F. Lindberg et al, J. Bacteriol. 171, 6052 (1989) and S. J. Hultgren et al., Proc. Natl. Acad. Sci. USA 86, 4357 (1989).
The PapD-peptide solution was then added to the reduced, denatured PapD-PapG, incubated at 25° C. for 10 min, and applied to an IEF 3-9 gel (Pharmacia). The amount of PapD-PapG restored in each sample was quantitated by densitometry of the silver stained IEF band corresponding to the pI of the DG complex.

Substance	inhibitory power on binding of PapD to MBP-G1′-140′ (PapD [2])	binding of PapD to immobilized peptide (PapD [3])	also measured
G1′-4′: 4 C-terminal amino acid residues of PapG (numbering of b394) (LSFP)	–	–	% Inhibition (PapD [1]): 0%
G1′-6′: length series of peptides from the C-terminus of PapG, 6 residues (MVLSFP)	less active inhibitory peptides	–	–
G1′-8′: octameric peptide from the C-terminus of PapG (MTMVLSFP)	significantly higher inhibitive effect; also recorded: significantly more potent	–	–
H-QNLIAGPFSATATLVASYS-OH [E1′-19′WT, NH2-QNLIAGPFSATATLVASYS-COOH]	–	moderately	–
H-SGSMTMVLSFP-OH [G1′-11′WT, NH2-SGSMTMVLSFP-COOH]	significantly more potent	binds	–
H-TMVLSFP-OH [G1′-7′WT, NH2-TMVLSFP-COOH]	less active inhibitory peptides	does not bind	solubility [4]: limited solubility
NH2-EEGKRKPGELSGSMTMVLSF-CONH2 (H-EEGKRKPGELSGSMTMVLSF-NH2) [G2′-21′amide]	–	reduced binding of PapD	reduction of binding of PapD to the immobilized peptide (PapD [3]): approximately 75%; rate of trypsin cleavage of PapD (PapD [5]): had no effect and not; inhibition of restoration of the PapD-PapG complex by PapD (PapD-PapG complex): has no effect; % Inhibition (PapD [1]): 0%
NH2-GILNGGDFQTTASMAMIYN-COOH (H-GILNGGDFQTTASMAMIYN-OH) [F1′-19′WT]	–	moderately	–
NH2-GKRKPGELSGSMTMVLSFP-CONH2 (H-GKRKPGELSGSMTMVLSFP-NH2) [G1′-19′ amide]	–	did not affect binding to PapD	–
NH2-GKRKPGELSGSMTMVLSFP-COOH (H-GKRKPGELSGSMTMVLSFP-OH) [G1′-19′WT]	–	bound well	rate of trypsin cleavage of PapD (PapD [5]): decreased; also recorded: reduced the rate of tryptic cleavage of PapD; inhibition of restoration of the PapD-PapG complex by PapD (PapD-PapG complex): inhibit restoration of the PapD-PapG complex
NH2-GKRKPVELSGSMTMVLSSP-COOH (H-GKRKPVELSGSMTMVLSSP-OH) [G1′-19′SV]	–	–	reduction of binding of PapD to the immobilized peptide (PapD [3]): 36%
NH2-KKLEAGNYFAVLGFRVDYE-COOH (H-KKLEAGNYFAVLGFRVDYE-OH) [H1′-19′ WT]	–	no binding	–
NH2-KPGELSGSMTMVLSFP-COOH (H-KPGELSGSMTMVLSFP-OH) [G1′-16′WT]	significantly more potent	binds	rate of trypsin cleavage of PapD (PapD [5]): decreased; also recorded: reduced the rate of tryptic cleavage of PapD; inhibition of restoration of the PapD-PapG complex by PapD (PapD-PapG complex): inhibit restoration of the PapD-PapG complex
NH2-KSVVPGDYEATATFELTYR-COOH (H-KSVVPGDYEATATFELTYR-OH) [K1′-19′WT]	–	tight binding	binding of PapD to immobilized peptide (PapD [3]; listed as PapK): moderately; rate of trypsin cleavage of PapD (PapD [5]): decreased; also recorded: reduced the rate of tryptic cleavage of PapD; inhibition of restoration of the PapD-PapG complex by PapD (PapD-PapG complex): inhibit restoration of the PapD-PapG complex
NH2-YALAPNAVIPTSLALL-COOH (H-YALAPNAVIPTSLALL-OH) [MS, random hydrophobic peptide, reference compound]	–	no binding	% Inhibition (PapD [1]): 1%
